Measurements: the supplement of paper PMC7125110
± gives the standard error. Fewer inactive variants are shown than the library holds.

B1: glmS ribozyme (parent)
chain: AUAAAAGCGCCAGAACUACAGAAAUGUAGUUGACGAGGAGGAGGUUUAUCGAAUUUUCGGCGGAUGCCUCCAAA

Key:
Conditions in all cases: with glucosamine-6-phosphate
[1] = variants of: B1; assay: self-cleavage kobs at 40 uM GlcN6P; higher = faster cleavage; RNA array
Method in brief: (§1)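 The measurements used barcoded ribozyme variants on sequenced MiSeq chips, transcribed in situ by E. coli RNA polymerase and tracked at 37 °C with a hybridised Cy3 probe. Glucosamine-6-phosphate, 40 μM to 10 mM in HEPES/KCl/Mg(OAc)2 buffer, was flowed in while tiles were imaged over ~14 h. Baseline-normalised signals, also normalised to non-cleaving reference variants, gave per-tile medians that were fit to one- or two-exponential decays for kobs. kcat and KM resulted from weighted Michaelis–Menten fits across concentrations.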

[2] = variants of: B1; assay: self-cleavage kobs at 160 uM GlcN6P; higher = faster cleavage; RNA array
Method in brief: as §1

[3] = variants of: B1; assay: self-cleavage kobs at 640 uM GlcN6P; higher = faster cleavage; RNA array
Method in brief: as §1

[4] = variants of: B1; assay: self-cleavage kobs at 2500 uM GlcN6P; higher = faster cleavage; RNA array
Method in brief: as §1

[5] = variants of: B1; assay: self-cleavage kobs at 10000 uM GlcN6P; higher = faster cleavage; RNA array
Method in brief: as §1

Variant: A15G G66A
- self-cleavage kobs at 40 uM GlcN6P [1]: 0.000603 ± 8.4e-05 s⁻¹
- self-cleavage kobs at 160 uM GlcN6P [2]: 0.00153 ± 0.00044 s⁻¹
- self-cleavage kobs at 640 uM GlcN6P [3]: 0.00506 ± 0.0011 s⁻¹
- self-cleavage kobs at 2500 uM GlcN6P [4]: 0.00542 ± 0.0014 s⁻¹
- self-cleavage kobs at 10000 uM GlcN6P [5]: 0.0412 ± 0.011 s⁻¹

Variant: A33U A36G G41C A53G
- self-cleavage kobs at 40 uM GlcN6P [1]: < 1e-05 s⁻¹
- self-cleavage kobs at 10000 uM GlcN6P [5]: < 1e-05 s⁻¹

Variant: C70G
- self-cleavage kobs at 40 uM GlcN6P [1]: 0.000246 ± 5.2e-05 s⁻¹
- self-cleavage kobs at 160 uM GlcN6P [2]: 0.000401 ± 9.4e-05 s⁻¹
- self-cleavage kobs at 640 uM GlcN6P [3]: 0.0014 ± 0.00021 s⁻¹
- self-cleavage kobs at 2500 uM GlcN6P [4]: 0.000576 ± 4.7e-05 s⁻¹
- self-cleavage kobs at 10000 uM GlcN6P [5]: 0.00395 ± 0.00093 s⁻¹

Variant: C10G G35A
- self-cleavage kobs at 40 uM GlcN6P [1]: < 1e-05 s⁻¹
- self-cleavage kobs at 160 uM GlcN6P [2]: < 1e-05 s⁻¹
- self-cleavage kobs at 640 uM GlcN6P [3]: < 1e-05 s⁻¹

Variant: U31G G60C C68A
- self-cleavage kobs at 40 uM GlcN6P [1]: < 1e-05 s⁻¹

Variant: A14U G41U G44U
- self-cleavage kobs at 40 uM GlcN6P [1]: < 1e-05 s⁻¹
- self-cleavage kobs at 160 uM GlcN6P [2]: < 1e-05 s⁻¹
- self-cleavage kobs at 640 uM GlcN6P [3]: < 1e-05 s⁻¹
- self-cleavage kobs at 10000 uM GlcN6P [5]: < 1e-05 s⁻¹

Variant: C34G
- self-cleavage kobs at 40 uM GlcN6P [1]: < 1e-05 s⁻¹
- self-cleavage kobs at 160 uM GlcN6P [2]: < 1e-05 s⁻¹
- self-cleavage kobs at 640 uM GlcN6P [3]: < 1e-05 s⁻¹
- self-cleavage kobs at 2500 uM GlcN6P [4]: < 1e-05 s⁻¹
- self-cleavage kobs at 10000 uM GlcN6P [5]: < 1e-05 s⁻¹

Variant: A14C G63A
- self-cleavage kobs at 40 uM GlcN6P [1]: < 1e-05 s⁻¹
- self-cleavage kobs at 640 uM GlcN6P [3]: < 1e-05 s⁻¹
- self-cleavage kobs at 10000 uM GlcN6P [5]: < 1e-05 s⁻¹

Variant: G40A C61U
- self-cleavage kobs at 40 uM GlcN6P [1]: < 1e-05 s⁻¹
- self-cleavage kobs at 160 uM GlcN6P [2]: < 1e-05 s⁻¹
- self-cleavage kobs at 640 uM GlcN6P [3]: < 1e-05 s⁻¹

Variant: A14G A39G G41A U55G U69C A73U
- self-cleavage kobs at 40 uM GlcN6P [1]: < 1e-05 s⁻¹

Variant: A52C U56A
- self-cleavage kobs at 40 uM GlcN6P [1]: < 1e-05 s⁻¹
- self-cleavage kobs at 640 uM GlcN6P [3]: < 1e-05 s⁻¹

Variant: U31G U54G
- self-cleavage kobs at 40 uM GlcN6P [1]: 0.000298 ± 5.4e-05 s⁻¹
- self-cleavage kobs at 160 uM GlcN6P [2]: 0.000493 ± 8.5e-05 s⁻¹
- self-cleavage kobs at 640 uM GlcN6P [3]: 0.00263 ± 0.00063 s⁻¹
- self-cleavage kobs at 2500 uM GlcN6P [4]: 0.00445 ± 0.00094 s⁻¹
- self-cleavage kobs at 10000 uM GlcN6P [5]: 0.0119 ± 0.0031 s⁻¹

Variant: G40U A48G G63U
- self-cleavage kobs at 40 uM GlcN6P [1]: < 1e-05 s⁻¹
- self-cleavage kobs at 160 uM GlcN6P [2]: < 1e-05 s⁻¹
- self-cleavage kobs at 640 uM GlcN6P [3]: < 1e-05 s⁻¹
- self-cleavage kobs at 10000 uM GlcN6P [5]: < 1e-05 s⁻¹

Variant: A6G A12U U65G
- self-cleavage kobs at 40 uM GlcN6P [1]: < 1e-05 s⁻¹
- self-cleavage kobs at 10000 uM GlcN6P [5]: 0.000137 ± 4.1e-05 s⁻¹

Variant: G38A U47C
- self-cleavage kobs at 40 uM GlcN6P [1]: < 1e-05 s⁻¹
- self-cleavage kobs at 160 uM GlcN6P [2]: < 1e-05 s⁻¹
- self-cleavage kobs at 2500 uM GlcN6P [4]: < 1e-05 s⁻¹

Variant: A42U U46G C50U C70U
- self-cleavage kobs at 40 uM GlcN6P [1]: < 1e-05 s⁻¹
- self-cleavage kobs at 10000 uM GlcN6P [5]: < 1e-05 s⁻¹

Variant: G35A A36U G37U A39G U54C C68U
- self-cleavage kobs at 40 uM GlcN6P [1]: 5.13e-05 ± 2.2e-05 s⁻¹

Variant: C11U G41C U45A C71G
- self-cleavage kobs at 40 uM GlcN6P [1]: < 1e-05 s⁻¹
- self-cleavage kobs at 160 uM GlcN6P [2]: < 1e-05 s⁻¹
- self-cleavage kobs at 2500 uM GlcN6P [4]: < 1e-05 s⁻¹

Variant: G13C G43U
- self-cleavage kobs at 40 uM GlcN6P [1]: < 1e-05 s⁻¹
- self-cleavage kobs at 640 uM GlcN6P [3]: < 1e-05 s⁻¹
- self-cleavage kobs at 2500 uM GlcN6P [4]: < 1e-05 s⁻¹
- self-cleavage kobs at 10000 uM GlcN6P [5]: < 1e-05 s⁻¹

Variant: A36C U49G A53G
- self-cleavage kobs at 40 uM GlcN6P [1]: 4.33e-05 ± 1.4e-05 s⁻¹
- self-cleavage kobs at 10000 uM GlcN6P [5]: 0.00107 ± 0.00018 s⁻¹

Variant: C11G U46A
- self-cleavage kobs at 40 uM GlcN6P [1]: < 1e-05 s⁻¹
- self-cleavage kobs at 160 uM GlcN6P [2]: < 1e-05 s⁻¹
- self-cleavage kobs at 2500 uM GlcN6P [4]: < 1e-05 s⁻¹
- self-cleavage kobs at 10000 uM GlcN6P [5]: < 1e-05 s⁻¹

Variant: U57A C61U
- self-cleavage kobs at 40 uM GlcN6P [1]: < 1e-05 s⁻¹
- self-cleavage kobs at 640 uM GlcN6P [3]: < 1e-05 s⁻¹
- self-cleavage kobs at 2500 uM GlcN6P [4]: < 1e-05 s⁻¹
- self-cleavage kobs at 10000 uM GlcN6P [5]: < 1e-05 s⁻¹

Variant: A12U A15G A39G
- self-cleavage kobs at 40 uM GlcN6P [1]: 0.00105 ± 0.00021 s⁻¹
- self-cleavage kobs at 10000 uM GlcN6P [5]: 0.0688 ± 0.023 s⁻¹

Variant: C10G C16G G35C A39C
- self-cleavage kobs at 40 uM GlcN6P [1]: < 1e-05 s⁻¹
- self-cleavage kobs at 10000 uM GlcN6P [5]: < 1e-05 s⁻¹

Variant: G13U G59C
- self-cleavage kobs at 40 uM GlcN6P [1]: < 1e-05 s⁻¹
- self-cleavage kobs at 640 uM GlcN6P [3]: < 1e-05 s⁻¹
- self-cleavage kobs at 10000 uM GlcN6P [5]: < 1e-05 s⁻¹

Variant: C11A C34G G43C G51U G60C
- self-cleavage kobs at 40 uM GlcN6P [1]: < 1e-05 s⁻¹
- self-cleavage kobs at 640 uM GlcN6P [3]: < 1e-05 s⁻¹

Variant: C34U A42C
- self-cleavage kobs at 40 uM GlcN6P [1]: < 1e-05 s⁻¹
- self-cleavage kobs at 640 uM GlcN6P [3]: < 1e-05 s⁻¹
- self-cleavage kobs at 2500 uM GlcN6P [4]: < 1e-05 s⁻¹
- self-cleavage kobs at 10000 uM GlcN6P [5]: < 1e-05 s⁻¹

Variant: C10G G38C U69G
- self-cleavage kobs at 40 uM GlcN6P [1]: < 1e-05 s⁻¹
- self-cleavage kobs at 640 uM GlcN6P [3]: < 1e-05 s⁻¹

Variant: G40U G63A
- self-cleavage kobs at 40 uM GlcN6P [1]: < 1e-05 s⁻¹
- self-cleavage kobs at 160 uM GlcN6P [2]: < 1e-05 s⁻¹
- self-cleavage kobs at 640 uM GlcN6P [3]: < 1e-05 s⁻¹
- self-cleavage kobs at 2500 uM GlcN6P [4]: < 1e-05 s⁻¹
- self-cleavage kobs at 10000 uM GlcN6P [5]: < 1e-05 s⁻¹

Variant: A42C G44C
- self-cleavage kobs at 40 uM GlcN6P [1]: < 1e-05 s⁻¹
- self-cleavage kobs at 160 uM GlcN6P [2]: < 1e-05 s⁻¹
- self-cleavage kobs at 640 uM GlcN6P [3]: < 1e-05 s⁻¹
- self-cleavage kobs at 10000 uM GlcN6P [5]: < 1e-05 s⁻¹

Variant: G44U U45C
- self-cleavage kobs at 40 uM GlcN6P [1]: < 1e-05 s⁻¹

Variant: C11U A14C A36G C50A
- self-cleavage kobs at 40 uM GlcN6P [1]: < 1e-05 s⁻¹
- self-cleavage kobs at 10000 uM GlcN6P [5]: < 1e-05 s⁻¹

Variant: C50G A53C C67G
- self-cleavage kobs at 40 uM GlcN6P [1]: 7.76e-05 ± 2.5e-05 s⁻¹
- self-cleavage kobs at 160 uM GlcN6P [2]: 0.000121 ± 2.6e-05 s⁻¹
- self-cleavage kobs at 640 uM GlcN6P [3]: 0.000198 ± 6.2e-05 s⁻¹
- self-cleavage kobs at 2500 uM GlcN6P [4]: 0.000336 ± 0.00012 s⁻¹
- self-cleavage kobs at 10000 uM GlcN6P [5]: 5.98e-05 ± 1.9e-05 s⁻¹

Variant: A6C C34U
- self-cleavage kobs at 40 uM GlcN6P [1]: < 1e-05 s⁻¹
- self-cleavage kobs at 160 uM GlcN6P [2]: < 1e-05 s⁻¹
- self-cleavage kobs at 640 uM GlcN6P [3]: < 1e-05 s⁻¹
- self-cleavage kobs at 2500 uM GlcN6P [4]: < 1e-05 s⁻¹
- self-cleavage kobs at 10000 uM GlcN6P [5]: < 1e-05 s⁻¹

Variant: G7U C8A
- self-cleavage kobs at 40 uM GlcN6P [1]: < 1e-05 s⁻¹
- self-cleavage kobs at 160 uM GlcN6P [2]: < 1e-05 s⁻¹
- self-cleavage kobs at 2500 uM GlcN6P [4]: < 1e-05 s⁻¹

Variant: A14G G29C G40A C58U
- self-cleavage kobs at 40 uM GlcN6P [1]: < 1e-05 s⁻¹
- self-cleavage kobs at 640 uM GlcN6P [3]: < 1e-05 s⁻¹

Variant: G37A U57C G59C
- self-cleavage kobs at 40 uM GlcN6P [1]: < 1e-05 s⁻¹
- self-cleavage kobs at 10000 uM GlcN6P [5]: < 1e-05 s⁻¹

Variant: U49G C50A
- self-cleavage kobs at 40 uM GlcN6P [1]: < 1e-05 s⁻¹
- self-cleavage kobs at 160 uM GlcN6P [2]: < 1e-05 s⁻¹

Variant: A6G C8G A33G A48U C58U A64U C70A
- self-cleavage kobs at 40 uM GlcN6P [1]: 3.84e-05 ± 1.7e-05 s⁻¹
- self-cleavage kobs at 10000 uM GlcN6P [5]: 0.000104 ± 3e-05 s⁻¹

Variant: C10A U30C
- self-cleavage kobs at 40 uM GlcN6P [1]: < 1e-05 s⁻¹
- self-cleavage kobs at 160 uM GlcN6P [2]: < 1e-05 s⁻¹
- self-cleavage kobs at 640 uM GlcN6P [3]: < 1e-05 s⁻¹
- self-cleavage kobs at 2500 uM GlcN6P [4]: < 1e-05 s⁻¹
- self-cleavage kobs at 10000 uM GlcN6P [5]: < 1e-05 s⁻¹

Variant: C10A A14U C70A
- self-cleavage kobs at 40 uM GlcN6P [1]: 5.36e-05 ± 2.5e-05 s⁻¹
- self-cleavage kobs at 10000 uM GlcN6P [5]: 3.49e-05 ± 1.4e-05 s⁻¹

Variant: U31G G35C
- self-cleavage kobs at 40 uM GlcN6P [1]: < 1e-05 s⁻¹
- self-cleavage kobs at 160 uM GlcN6P [2]: < 1e-05 s⁻¹
- self-cleavage kobs at 640 uM GlcN6P [3]: < 1e-05 s⁻¹
- self-cleavage kobs at 2500 uM GlcN6P [4]: < 1e-05 s⁻¹

Variant: U31C U57G
- self-cleavage kobs at 40 uM GlcN6P [1]: < 1e-05 s⁻¹

Variant: G7U G41U U46A G62U
- self-cleavage kobs at 40 uM GlcN6P [1]: < 1e-05 s⁻¹
- self-cleavage kobs at 640 uM GlcN6P [3]: < 1e-05 s⁻¹
- self-cleavage kobs at 2500 uM GlcN6P [4]: < 1e-05 s⁻¹
- self-cleavage kobs at 10000 uM GlcN6P [5]: < 1e-05 s⁻¹
